According to patent publication US20030229005A1 (BIOZYME, published 2003):
*1 amine or outer side, *2 acyl side, *3 side chain or, on linkers, in order; H or OH if unused. [ ]: non-standard residue; d: D form. The star is where a group is joined. Dnp = O=[N+]([O-])c1ccc(*)c([N+](=O)[O-])c1; C(Me) = CSC[C@H](N[*:1])C(=O)[*:2]

B1: Dnp-GPLPFRGC(Me)-NH2 (peptide)
peptide: Dnp-GPLPFRG[C(Me)]-NH2
SMILES: CSC[C@H](NC(=O)CNC(=O)[C@H](CCCNC(=N)N)NC(=O)[C@H](Cc1ccccc1)NC(=O)[C@@H]1CCCN1C(=O)[C@H](CC(C)C)NC(=O)[C@@H]1CCCN1C(=O)CNc1ccc([N+](=O)[O-])cc1[N+](=O)[O-])C(N)=O
B2: Dnp-GPLPFRVC(Me)-NH2 (peptide)
peptide: Dnp-GPLPFRV[C(Me)]-NH2
SMILES: CSC[C@H](NC(=O)[C@@H](NC(=O)[C@H](CCCNC(=N)N)NC(=O)[C@H](Cc1ccccc1)NC(=O)[C@@H]1CCCN1C(=O)[C@H](CC(C)C)NC(=O)[C@@H]1CCCN1C(=O)CNc1ccc([N+](=O)[O-])cc1[N+](=O)[O-])C(C)C)C(N)=O
B3: Dnp-GPLPFHVC(Me)-NH2 (peptide)
peptide: Dnp-GPLPFHV[C(Me)]-NH2
SMILES: CSC[C@H](NC(=O)[C@@H](NC(=O)[C@H](Cc1c[nH]cn1)NC(=O)[C@H](Cc1ccccc1)NC(=O)[C@@H]1CCCN1C(=O)[C@H](CC(C)C)NC(=O)[C@@H]1CCCN1C(=O)CNc1ccc([N+](=O)[O-])cc1[N+](=O)[O-])C(C)C)C(N)=O
B4: Dnp-GPLGFRVC(Me)-NH2 (peptide)
peptide: Dnp-GPLGFRV[C(Me)]-NH2
SMILES: CSC[C@H](NC(=O)[C@@H](NC(=O)[C@H](CCCNC(=N)N)NC(=O)[C@H](Cc1ccccc1)NC(=O)CNC(=O)[C@H](CC(C)C)NC(=O)[C@@H]1CCCN1C(=O)CNc1ccc([N+](=O)[O-])cc1[N+](=O)[O-])C(C)C)C(N)=O
B5: Dnp-GPAPFRVC(Me)-NH2 (peptide)
peptide: Dnp-GPAPFRV[C(Me)]-NH2
SMILES: CSC[C@H](NC(=O)[C@@H](NC(=O)[C@H](CCCNC(=N)N)NC(=O)[C@H](Cc1ccccc1)NC(=O)[C@@H]1CCCN1C(=O)[C@H](C)NC(=O)[C@@H]1CCCN1C(=O)CNc1ccc([N+](=O)[O-])cc1[N+](=O)[O-])C(C)C)C(N)=O
B6: Dnp-GPAPLHGC(Me)-NH2 (peptide)
peptide: Dnp-GPAPLHG[C(Me)]-NH2
SMILES: CSC[C@H](NC(=O)CNC(=O)[C@H](Cc1c[nH]cn1)NC(=O)[C@H](CC(C)C)NC(=O)[C@@H]1CCCN1C(=O)[C@H](C)NC(=O)[C@@H]1CCCN1C(=O)CNc1ccc([N+](=O)[O-])cc1[N+](=O)[O-])C(N)=O
B7: Dnp-GPSPLHGC(Me)-NH2 (peptide)
peptide: Dnp-GPSPLHG[C(Me)]-NH2
SMILES: CSC[C@H](NC(=O)CNC(=O)[C@H](Cc1c[nH]cn1)NC(=O)[C@H](CC(C)C)NC(=O)[C@@H]1CCCN1C(=O)[C@H](CO)NC(=O)[C@@H]1CCCN1C(=O)CNc1ccc([N+](=O)[O-])cc1[N+](=O)[O-])C(N)=O
B8: Dnp-PHPFRG-NH2 (peptide)
peptide: Dnp-PHPFRG-NH2
SMILES: N=C(N)NCCC[C@H](NC(=O)[C@H](Cc1ccccc1)NC(=O)[C@@H]1CCCN1C(=O)[C@H](Cc1c[nH]cn1)NC(=O)[C@@H]1CCCN1c1ccc([N+](=O)[O-])cc1[N+](=O)[O-])C(=O)NCC(N)=O
B9: Dnp-GPSPFRGC(Me)-NH2 (peptide)
peptide: Dnp-GPSPFRG[C(Me)]-NH2
SMILES: CSC[C@H](NC(=O)CNC(=O)[C@H](CCCNC(=N)N)NC(=O)[C@H](Cc1ccccc1)NC(=O)[C@@H]1CCCN1C(=O)[C@H](CO)NC(=O)[C@@H]1CCCN1C(=O)CNc1ccc([N+](=O)[O-])cc1[N+](=O)[O-])C(N)=O
B10: Dnp-GPAPLHVC(Me)-NH2 (peptide)
peptide: Dnp-GPAPLHV[C(Me)]-NH2
SMILES: CSC[C@H](NC(=O)[C@@H](NC(=O)[C@H](Cc1c[nH]cn1)NC(=O)[C@H](CC(C)C)NC(=O)[C@@H]1CCCN1C(=O)[C@H](C)NC(=O)[C@@H]1CCCN1C(=O)CNc1ccc([N+](=O)[O-])cc1[N+](=O)[O-])C(C)C)C(N)=O
B11: Dnp-GPSPFHVC(Me)-NH2 (peptide)
peptide: Dnp-GPSPFHV[C(Me)]-NH2
SMILES: CSC[C@H](NC(=O)[C@@H](NC(=O)[C@H](Cc1c[nH]cn1)NC(=O)[C@H](Cc1ccccc1)NC(=O)[C@@H]1CCCN1C(=O)[C@H](CO)NC(=O)[C@@H]1CCCN1C(=O)CNc1ccc([N+](=O)[O-])cc1[N+](=O)[O-])C(C)C)C(N)=O
B12: Dnp-GPLGFRGC(Me)-NH2 (peptide)
peptide: Dnp-GPLGFRG[C(Me)]-NH2
SMILES: CSC[C@H](NC(=O)CNC(=O)[C@H](CCCNC(=N)N)NC(=O)[C@H](Cc1ccccc1)NC(=O)CNC(=O)[C@H](CC(C)C)NC(=O)[C@@H]1CCCN1C(=O)CNc1ccc([N+](=O)[O-])cc1[N+](=O)[O-])C(N)=O
B13: Dnp-GPAPFRGC(Me)-NH2 (peptide)
peptide: Dnp-GPAPFRG[C(Me)]-NH2
SMILES: CSC[C@H](NC(=O)CNC(=O)[C@H](CCCNC(=N)N)NC(=O)[C@H](Cc1ccccc1)NC(=O)[C@@H]1CCCN1C(=O)[C@H](C)NC(=O)[C@@H]1CCCN1C(=O)CNc1ccc([N+](=O)[O-])cc1[N+](=O)[O-])C(N)=O
B14: Dnp-GPLGLHGC(Me)-NH2 (peptide)
peptide: Dnp-GPLGLHG[C(Me)]-NH2
SMILES: CSC[C@H](NC(=O)CNC(=O)[C@H](Cc1c[nH]cn1)NC(=O)[C@H](CC(C)C)NC(=O)CNC(=O)[C@H](CC(C)C)NC(=O)[C@@H]1CCCN1C(=O)CNc1ccc([N+](=O)[O-])cc1[N+](=O)[O-])C(N)=O

What follows are binders tested against stromelysin 1 (UniProt P08254 100-477, limits assumed) (assay: cell-based or functional assay).
stromelysin 1, sequence (P08254 100-477 limits assumed): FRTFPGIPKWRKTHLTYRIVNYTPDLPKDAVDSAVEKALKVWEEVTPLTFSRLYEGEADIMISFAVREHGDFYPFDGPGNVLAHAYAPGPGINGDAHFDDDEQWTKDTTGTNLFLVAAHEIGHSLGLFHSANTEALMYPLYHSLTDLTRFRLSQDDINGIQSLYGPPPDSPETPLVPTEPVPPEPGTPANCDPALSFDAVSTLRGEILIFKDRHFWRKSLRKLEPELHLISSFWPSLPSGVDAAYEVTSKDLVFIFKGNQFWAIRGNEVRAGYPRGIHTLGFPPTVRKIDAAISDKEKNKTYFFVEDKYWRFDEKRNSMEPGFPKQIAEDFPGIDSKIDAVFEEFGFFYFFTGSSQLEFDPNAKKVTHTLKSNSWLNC
With B1 the “Selectivity v. Coll-3” value was 814 unitless.
In the case of B2, the “Selectivity v. Coll-3” value is reported as 332 unitless.
In the case of B3, the “Selectivity v. Coll-3” value is reported as 619 unitless.
With B4 the “Selectivity v. Coll-3” value was 3970 unitless.
With B5 the “Selectivity v. Coll-3” value was 448 unitless.
With B6 the “Selectivity v. Coll-3” value was 620 unitless.
For B7, the “Selectivity v. Coll-3” value was 2990 unitless.
In the case of B8, the “Selectivity v. Coll-3” value is reported as 1050 unitless.
For B9, the “Selectivity v. Coll-3” value was 1390 unitless.
B10 was tested, and the “Selectivity v. Coll-3” value was 264 unitless.
B11 was tested, and the “Selectivity v. Coll-3” value was 2100 unitless.
B12 was tested, and the “Selectivity v. Coll-3” value was 7290 unitless.
B13 was tested, and the “Selectivity v. Coll-3” value was 488 unitless.
For B14, the “Selectivity v. Coll-3” value was 10400 unitless.

These binders were tested against gelatinase B (UniProt P14780 107-707, limits assumed) (assay: cell-based or functional assay).
gelatinase B, sequence (P14780 107-707 limits assumed): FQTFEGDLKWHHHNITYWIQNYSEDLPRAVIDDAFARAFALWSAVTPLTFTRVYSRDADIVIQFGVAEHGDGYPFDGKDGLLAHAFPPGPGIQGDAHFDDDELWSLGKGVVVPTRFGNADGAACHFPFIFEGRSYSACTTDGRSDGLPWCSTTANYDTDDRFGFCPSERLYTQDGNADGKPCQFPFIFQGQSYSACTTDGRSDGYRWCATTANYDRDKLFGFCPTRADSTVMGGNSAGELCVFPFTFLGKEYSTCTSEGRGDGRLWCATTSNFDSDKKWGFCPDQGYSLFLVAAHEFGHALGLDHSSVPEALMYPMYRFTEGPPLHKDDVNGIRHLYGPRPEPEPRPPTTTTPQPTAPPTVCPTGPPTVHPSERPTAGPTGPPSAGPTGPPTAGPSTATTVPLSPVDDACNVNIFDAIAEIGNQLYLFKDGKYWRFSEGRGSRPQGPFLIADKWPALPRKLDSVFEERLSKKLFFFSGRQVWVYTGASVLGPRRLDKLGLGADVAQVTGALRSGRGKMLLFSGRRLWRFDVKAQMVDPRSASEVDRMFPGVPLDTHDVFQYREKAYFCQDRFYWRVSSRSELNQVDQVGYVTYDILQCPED
For B1, the “Selectivity v. Coll-3” value was 8 unitless.
B2 was tested, and the “Selectivity v. Coll-3” value was 21 unitless.
In the case of B3, the “Selectivity v. Coll-3” value is reported as 18 unitless.
For B4, the “Selectivity v. Coll-3” value was 20 unitless.
In the case of B5, the “Selectivity v. Coll-3” value is reported as 82 unitless.
For B6, the “Selectivity v. Coll-3” value was 10 unitless.
For B7, the “Selectivity v. Coll-3” value was 7 unitless.
For B8, the “Selectivity v. Coll-3” value was 4 unitless.
In the case of B9, the “Selectivity v. Coll-3” value is reported as 13 unitless.
With B10 the “Selectivity v. Coll-3” value was 11 unitless.
For B11, the “Selectivity v. Coll-3” value was 54 unitless.
With B12 the “Selectivity v. Coll-3” value was 7 unitless.
B13 was tested, and the “Selectivity v. Coll-3” value was 14 unitless.
For B14, the “Selectivity v. Coll-3” value was 5 unitless.

Each binder was assayed against T1, collagenase 1 (UniProt P03956 100-469, limits assumed) (assay: cell-based or functional assay).
T1 sequence (looked up): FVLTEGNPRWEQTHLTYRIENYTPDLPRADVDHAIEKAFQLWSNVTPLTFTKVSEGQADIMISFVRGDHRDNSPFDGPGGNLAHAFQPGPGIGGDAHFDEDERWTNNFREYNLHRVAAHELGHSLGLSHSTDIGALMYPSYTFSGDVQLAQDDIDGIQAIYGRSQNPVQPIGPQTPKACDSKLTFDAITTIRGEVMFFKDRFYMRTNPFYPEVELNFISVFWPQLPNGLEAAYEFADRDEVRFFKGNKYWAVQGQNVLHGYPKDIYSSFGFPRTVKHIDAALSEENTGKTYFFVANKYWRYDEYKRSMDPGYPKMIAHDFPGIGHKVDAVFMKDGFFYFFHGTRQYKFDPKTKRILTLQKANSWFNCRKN
In the case of B1, the “Selectivity v. Coll-3” value is reported as 429 unitless.
B2 was tested, and the “Selectivity v. Coll-3” value was 550 unitless.
In the case of B3, the “Selectivity v. Coll-3” value is reported as 2950 unitless.
With B4 the “Selectivity v. Coll-3” value was 17300 unitless.
For B5, the “Selectivity v. Coll-3” value was 5790 unitless.
With B6 the “Selectivity v. Coll-3” value was 473 unitless.
B7 was tested, and the “Selectivity v. Coll-3” value was 274 unitless.
With B8 the “Selectivity v. Coll-3” value was 2230 unitless.
B9 was tested, and the “Selectivity v. Coll-3” value was 2430 unitless.
B10 was tested, and the “Selectivity v. Coll-3” value was 126 unitless.
With B11 the “Selectivity v. Coll-3” value was 1570 unitless.
In the case of B12, the “Selectivity v. Coll-3” value is reported as 10600 unitless.
For B13, the “Selectivity v. Coll-3” value was 4420 unitless.
With B14 the “Selectivity v. Coll-3” value was 660 unitless.

Each binder was assayed against T2, human Gelatinase-A (human, UniProt P08253 110-660, limits assumed) (assay: cell-based or functional assay).
T2 sequence (looked up): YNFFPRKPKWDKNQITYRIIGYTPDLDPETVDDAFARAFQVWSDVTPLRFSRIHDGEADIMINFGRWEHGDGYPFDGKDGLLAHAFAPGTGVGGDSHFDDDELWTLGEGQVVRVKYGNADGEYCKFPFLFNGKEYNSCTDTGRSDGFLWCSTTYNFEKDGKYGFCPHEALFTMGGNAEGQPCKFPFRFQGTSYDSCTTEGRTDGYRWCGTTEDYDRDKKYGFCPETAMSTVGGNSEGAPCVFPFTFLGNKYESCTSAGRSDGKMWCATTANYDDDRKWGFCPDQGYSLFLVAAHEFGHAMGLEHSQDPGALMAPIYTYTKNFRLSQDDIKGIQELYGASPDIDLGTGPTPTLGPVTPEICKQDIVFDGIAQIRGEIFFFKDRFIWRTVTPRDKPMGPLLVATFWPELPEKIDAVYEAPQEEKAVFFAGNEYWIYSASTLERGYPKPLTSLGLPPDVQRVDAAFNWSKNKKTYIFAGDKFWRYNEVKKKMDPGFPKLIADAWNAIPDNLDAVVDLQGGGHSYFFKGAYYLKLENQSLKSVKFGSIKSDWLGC
For B1, the “Selectivity v. Coll-3” value was 16 unitless.
In the case of B2, the “Selectivity v. Coll-3” value is reported as 36 unitless.
In the case of B3, the “Selectivity v. Coll-3” value is reported as 20 unitless.
With B4 the “Selectivity v. Coll-3” value was 15 unitless.
With B5 the “Selectivity v. Coll-3” value was 37 unitless.
B6 was tested, and the “Selectivity v. Coll-3” value was 12 unitless.
For B7, the “Selectivity v. Coll-3” value was 8 unitless.
With B8 the “Selectivity v. Coll-3” value was 28 unitless.
In the case of B9, the “Selectivity v. Coll-3” value is reported as 10 unitless.
With B10 the “Selectivity v. Coll-3” value was 12 unitless.
For B11, the “Selectivity v. Coll-3” value was 18 unitless.
With B12 the “Selectivity v. Coll-3” value was 10 unitless.
In the case of B13, the “Selectivity v. Coll-3” value is reported as 9 unitless.
In the case of B14, the “Selectivity v. Coll-3” value is reported as 16 unitless.
